Experimental data: patent US20150299265A1 (Molecular Partners, published 2015)

target: Human HER2 expressed on tumour cells (human, UniProt P04626 23-1255); experiment: cell-based or functional assay

Binder	% activity vs. DARPin # 41, BT474 cell proliferation	IC50 [nM], inhibition of BT474 cell proliferation (BrdU)
DARPin #35 (designed binder) MRGSHHHHHHGSDLGIKLLFAAAKGQDDEVRILLAAGADVNAKDFEGYTPLHVAAYDGHLEIVEVLLKAGADVNAKDSQGRTPLHEAAYSGHLEIVEVLLKAGADVNAQDDAGETPADLAAAWGHEDIAEVLQKLGGGGSGGGGSRSDLGIKLLQAANLGQDDEVRILLATGADVNAKDSIGQTPLHWAARRGHLEIVEVLLKAGADVNAKDEYGVTPLHLAASLGHLEIVEVLLKAGADVNAQDESGETPADLAALHGHEDIAEVLQKLN	63%	4.63 nM
DARPin #63 (designed binder, PEGylated at its C-terminal Cys residue) MRGSHHHHHHGSDLGAKLLSDLGVKLLWAAARGQDDEVRILLAAGADVNAKDFQGITPLHIAAQSGHLEIVEVLLKAGADVNAKDVTGDTPLHLAAQHGHLVIVEVLLKAGADVNAQDERGWTPADLAADWGHEDIAEVLQKLGGGGSGGGGSRSDLGKKLLEAARAGQDDEVRILMANGADVNAKDEYGLTPLYLATAHGHLEIVEVLLKNGADVNAVDAIGFTPLHLAAFIGHLEIAEVLLKHGADVNAQDKFGKTAFDISIGNGNEDLAEILQKAAGGGSGGGSC	100%	1.77 nM
DARPin #68 (designed binder) MRGSHHHHHHGSDLGAKLLSDLGVKLLWAAARGQDDEVRILLAAGADVNAKDFQGITPLHIAAQSGHLEIVEVLLKAGADVNAKDVTGDTPLHLAAQHGHLVIVEVLLKAGADVNAQDERGWTPADLAADWGHEDIAEVLQKAAGSPTPTPTTPTPTPTTPTPTPTGSDLGKKLLEAARAGQDDEVRILMANGADVNAKDEYGLTPLYLATAHGHLEIVEVLLKNGADVNAVDAIGFTPLHLAAFIGHLEIAEVLLKHGADVNAQDKFGKTAFDISIGNGNEDLAEILQKAA	100%	5.35 nM
DARPin #65 (designed binder) MRGSHHHHHHGSDLGAKLLSDLGVKLLWAAARGQDDEVRILLAAGADVNAKDFQGITPLHIAAQSGHLEIVEVLLKAGADVNAKDVTGDTPLHLAAQHGHLVIVEVLLKAGADVNAQDERGWTPADLAADWGHEDIAEVLQKLGGGGSGGGGSRSDLGKKLLEAARAGQDDEVRILMANGADVNAKDEYGLTPLYLATAHGHLEIVEVLLKNGADVNAVDAIGFTPLHLAAFIGHLEIAEVLLKHGADVNAQDKFGKTAFDISIGNGNEDLAEILQKLNKLGGGGSGGGGSGGGGSGGGGSRSDLGKKLLEAARAGQDDEVRILMANGADVNAKDYFSHTPLHLAARNGHLKIVEVLLKAGADVNAKDFAGKTPLHLAANDGHLEIVEVLLKHGADVNAQDIFGKTPADIAADAGHEDIAEVLQKLN	100%	4.07 nM
DARPin #66 (designed binder) MRGSHHHHHHGSDLGAKLLSDLGVKLLWAAARGQDDEVRILLAAGADVNAKDFQGITPLHIAAQSGHLEIVEVLLKAGADVNAKDVTGDTPLHLAAQHGHLVIVEVLLKAGADVNAQDERGWTPADLAADWGHEDIAEVLQKAAGSDLGKKLLEAARAGQDDEVRILMANGADVNAKDEYGLTPLYLATAHGHLEIVEVLLKNGADVNAVDAIGFTPLHLAAFIGHLEIAEVLLKHGADVNAQDKFGKTAFDISIGNGNEDLAEILQKAA	100%	4.06 nM

Other lines, results leading:

% activity vs. DARPin # 41, BT474 cell proliferation	IC50 [nM], inhibition of BT474 cell proliferation (BrdU)	Binder
100%	2.31 nM	DARPin #64 (designed binder) MRGSHHHHHHGSDLGKKLLEAARAGQDDEVRILMANGADVNAKDYFSHTPLHLAARNGHLKIVEVLLKAGADVNAKDFAGKTPLHLAANDGHLEIVEVLLKHGADVNAQDIFGKTPADIAADAGHEDIAEVLQKLGGGGSGGGGSGGGGSGGGGSRSDLGAKLLSDLGVKLLWAAARGQDDEVRILLAAGADVNAKDFQGITPLHIAAQSGHLEIVEVLLKAGADVNAKDVTGDTPLHLAAQHGHLVIVEVLLKAGADVNAQDERGWTPADLAADWGHEDIAEVLQKLGGGGSGGGGSRSDLGKKLLEAARAGQDDEVRILMANGADVNAKDEYGLTPLYLATAHGHLEIVEVLLKNGADVNAVDAIGFTPLHLAAFIGHLEIAEVLLKHGADVNAQDKFGKTAFDISIGNGNEDLAEILQKLN
100%	4.87 nM	DARPin #67 (designed binder) MRGSHHHHHHGSDLGAKLLSDLGVKLLWAAARGQDDEVRILLAAGADVNAKDFQGITPLHIAAQSGHLEIVEVLLKAGADVNAKDVTGDTPLHLAAQHGHLVIVEVLLKAGADVNAQDERGWTPADLAADWGHEDIAEVLQKAAGGGGSDLGKKLLEAARAGQDDEVRILMANGADVNAKDEYGLTPLYLATAHGHLEIVEVLLKNGADVNAVDAIGFTPLHLAAFIGHLEIAEVLLKHGADVNAQDKFGKTAFDISIGNGNEDLAEILQKAA

target: T1, Recombinant human HER2 ectodomain (human, UniProt P04626 23-652, biotinylated on primary amines (for SPR and crude extract ELISA)); experiment: SPR (ProteOn); biotinylated human HER2 on neutravidin chip, monovalent DARPin injected
T1 construct: extracellular domain; also called ErbB2; ectodomain of human HER2; not shown: Flag tag
Method: Protein binding kinetics of interesting purified HER2-binding DARPins were assayed by Surface Plasmon Resonance (SPR) analysis with a ProteOn array system (BioRad) using a setup, where biotinylated human HER2 was immobilized via neutravidin and the interaction was measured by adding free monovalent DARPin. The determination of Kd values was performed according to standard procedures.
SPR was measured using a ProteOn instrument (BioRad) and measurement was performed according standard procedures known to the person skilled in the art. The running buffer was PBS, pH 7.4, containing 0.005% Tween 20®. Neutravidin was covalently immobilized on a GLC chip (BioRad) to a level of about 8000 resonance units (RU). Immobilization of HER2 on the neutravidin coated chip was then performed. […] The signals (i.e. resonance unit (RU) values) of an uncoated reference cell and a reference injection (i.e. injection of running buffer only) were subtracted from the RU traces obtained after injection of […] (double-referencing). From the SRP traces obtained from the on-rate and off-rate measurements the on- and off-rate of the corresponding DARPin HER2 interaction can be determined.
Dissociation constants (Kd) were calculated from the estimated on- and off-rates using standard procedures known to the person skilled in the art.

Binder	Kd
DARPin #60 (designed binder, monovalent) MRGSHHHHHHGSDLGVKLLWAAARGQDDEVRELLKAGADVNAKDFQGITPLHIAAQSGHLEIVEVLLKAGADVNAKDVTGDTPLHLAAQHGHLEIVEVLLKAGADVNAQDERGWTPADLAADWGHEDIAEVLQKLN	0.0117 nM
DARPin #6 (designed binder, monovalent) MRGSHHHHHHGSDLGVNLLWAATRGQDDEVRILLAAGADVNAKDFEGVTPLHLAAQWGHLEIVEVLLKAGADVNAKDVTGDTPLHLAAQHGHLEIVEVLLKAGADVNAQDERGWTPADLAADWGHEDIAEVLQKLN	0.0292 nM
DARPin #2 (designed binder, monovalent) MRGSHHHHHHGSDLGVKLLWAAARGQDDEVRELLKAGADVNAKDFQGITPLHIAATSGHLEIVEVLLKAGADVNAKDITGETPLHHAADSGHLEIVEVLLKAGADVNAQDKAGVTPADLAAAWGHEDIAEVLQKLN	0.875 nM
DARPin #58 (designed binder, monovalent) MRGSHHHHHHGSDLGFKLLFAAAKSQDDEVRILLAAGADVNAKDFQGVTSLHIAAQSGHLEIVEVLLKAGADVNAKDVTGDTPLHLAAQHGHLEIVEVLLKAGADVNAQDERGWTPADLAADWGHEDIAEVLQKLN	0.0413 nM
DARPin #4 (designed binder, The list of constructs skips DARPin #4) MRGSHHHHHHGSDLGVKLLWAAARGQDDEVRELLKAGADVNAKDFQGITPLHIAAQSGHLEIVEVLLKAGADVNAKDVTGDTPLHLAAQHGHLEIVEVLLKAGADVNAQDERGKTPADLAADWGHEDIAEVLQKLN	0.186 nM
DARPin #57 (designed binder, monovalent) MRGSHHHHHHGSDLGIKLLWAAAQGQDDEVRILLAAGADVNAKDFQGVTPLHIAAQSGHLEVVEVLLKAGADVNAKDVTGDTPLHLAAQHGHLEIVEVLLKAGADVNAQDERGWTPADLAADWGHEDIAEVLQKLN	0.0604 nM
DARPin #56 (designed binder, monovalent) MRGSHHHHHHGSDLGQKLLIAASRGQDDEVRILLAAGADVNAKDFQGVTPLHIAAQSGHLEIVEVLLKAGADVNAKDVTGDTPLHLAAQHGHLEIVEVLLKAGADVNAQDERGWTPTDLAADWGHEDIAEVLQKLN	2 nM
DARPin #59 (designed binder, monovalent) MRGSHHHHHHGSDLGVKLLWAAARGQDDEVRELLKAGADVNAKDFQGITPLHIAATNGHLEIVEVLLKAGADVNAKDITGETPLHHAADSGHLEIVEVLLKAGADVNAQDKAGVTPADLAAAWGHEDIAEVLQKLN	0.0333 nM
DARPin #10 (designed binder, monovalent) MRGSHHHHHHGSDLGVKLLWAASHGQDDEVRILLAAGADVNAKDFFGITPLHQAAWGHLEIVEVLLKAGADVNAKEEDGTTPLHLAATHGHLEIVEVLLKAGADVNAQDWYGTTPADLAAWWGHEDIAEVLQKLN	1.03 nM

The next lines start with the values.

Kd	Binder
0.0873 nM	DARPin #55 (designed binder, monovalent) MRGSHHHHHHGSDLGIKLLIAASHGQDDEVRILLAAGANVNAKDFQGVTPLHIAAQSGHLEIVEVLLKAGADVNAKDVTGDTPLHLAAQHGHLEIVEVLLKAGADVNAQDERGWTPADLAADWGHEDIAEVLQKLN
0.0781 nM	DARPin #1 (designed binder, monovalent) MRGSHHHHHHGSDLGVKLLWAAARGQDDEVRILLAAGADVNAKDFQGITPLHIAAQSGHLEIVEVLLKAGADVNAKDVTGDTPLHLAAQHGHLVIVEVLLKAGADVNAQDERGWTPADLAADWGHEDIAEVLQKLN
0.00927 nM	DARPin #54 (designed binder, monovalent) MRGSHHHHHHGSDLGIKLLFAAAKGQDDEVRELLKAGADVNAKDFQGVTPLHIAAQSGHLEIVEVLLKAGADVNAKDVTGDTPLHLAAQHGHLEIVEVLLKAGADVNAQDERGWTPADLAADWGHEDIAEVLQKLN
0.0131 nM	DARPin #3 (designed binder, monovalent) MRGSHHHHHHGSDLGIKLLFAAAKSQDDEVRILLAAGADVNAKDFQSVTPLHIAAQSGHLEIVEVLLKAGADVNAKDVTGDTPLHLAAQHGHLEIVEVLLKAGADVNAQDERGWTPADLAADWGHEDIAEVLQKLN
0.256 nM	DARPin #11 (designed binder, monovalent) MRGSHHHHHHGSDLGIKLLFAASRGQDDEVRILLAAGADVNAKDFEGITPLHAAARSGHLEIVEVLLKAGADVNAKDVEGWTPLHYAASYGHLEIVEVLLKAGADVNAQDNHGATPADLAAQWGHEDIAEVLQKLN
